US20160031942A1 (LONDON HEALTH SCIENCES CENTRE RESEARCH, published 2016)
Ends that are not written are not given here. * marks the point of attachment. FITC = O=C1OC2(c3ccc(O)cc3Oc3cc(O)ccc32)c2ccc(NC(=S)*)cc21; Ahx = NCCCCCC(=O)O

T1: Recombinant protein RHAMM-CT (truncated RHAMM, carboxy terminus containing the HA binding domain, amino acids … (Mus musculus (Mouse), UniProt Q00547 706-766))
T1 construct: Expressed in E. coli BL21 from pPAL7-RHAMM as eXact-tagged protein and purified on Profinity eXact resin (fluoride elution); M.W. 7.1 kDa, pI 10.1; also called recombinant RHAMM
T1 sequence: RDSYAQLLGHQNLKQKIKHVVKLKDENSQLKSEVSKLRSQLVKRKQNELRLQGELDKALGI

T2: Recombinant protein RHAMM-CT (truncated RHAMM, carboxy terminus containing the HA binding domain, amino acids … (UniProt Q00547 706-766))
T2 chain: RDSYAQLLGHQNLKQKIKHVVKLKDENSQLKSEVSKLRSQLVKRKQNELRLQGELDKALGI


Tests used:
[1] = target: T1, Recombinant protein RHAMM-CT (truncated …); experiment: solid phase peptide binding assay (ELISA), immobilised RHAMM
[2] = target: T2, Recombinant protein RHAMM-CT (truncated …); experiment: SPR
[3] = target: T1, Recombinant protein RHAMM-CT (truncated …); experiment: SPR screening (ProteON XPR36), RHAMM immobilised, peptide at 10 µM
Experimental: ProteON XPR36 system was used for the selection and ranking of different tubulin derived peptides against RHAMM. For immobilization of RHAMM, the ProteON GLC sensor chip surfaces were activated by amine coupling using 100 mM EDAC and 24 mM sulfo-NHS. RHAMM (30 μg/mL in sodium bicarbonate buffer, pH 9.7) was injected at a flow a rate of 30 μl/min. A buffer sample was injected on a different sensor plate for use as a reference. Ethanolamine HCl (1M, pH 8.5) was then injected to deactivate any remaining surface groups. Peptides (10 μM in PBS-T, 2% DMSO) were injected to a RHAMM functionalized surface at 50 μL/min for 3 minutes followed by a 10 minute dissociation (i.e. injection of PBS-T buffer) period. The surfaces were regenerated using two injections of 30 μL of 1M NaCl prior to the injection of the next peptide. In all experiments, reference subtraction was performed using data obtained from reference plate (No RHAMM) and RHAMM functionalized plate.
After immobilization of RHAMM on the SPR sensor chip, injection of a series of tubulin derived peptides was carried out. Association of the peptides with RHAMM proceeded for 3 minutes and the dissociation in analyte free buffer was carried out for 10 minutes. […]

| Binder | binding result [1] | Kd [2] | binding result [3] |
| --- | --- | --- | --- |
| {FITC-Ahx}-EAFEDEEEEIDG-NH2 [peptide 12c (SEQ ID NO: 33), fluorescein-conjugated SEQ ID NO: 12] | binds | – | – |
| FTEAESNMNDLV-NH2 (Synthetic 12-mer made on Rink amide MBHA resin) | – | 30 nM | binds |
